Here are results for 14 sequences from the supplement of paper PMC9170038.

The data set concerns MS2 coat protein. The experiment in a line: apparent KD of MS2 coat protein; higher = weaker reporter binding. Particulars: Eterna round: R107. A digest of the protocol: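 Titration buffer: 100 mM Tris-HCl pH 7.5, 80 mM KCl, 4 mM MgCl2, without or with constant ligand. Designed RNA switches transcribed on-chip from Illumina sequencing clusters received SNAP-549-labelled MS2 coat protein in twofold steps from 0.7 or 1.5 nM to 3 µM. Apparent KD is the median per design of fits to normalised cluster binding curves.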

Where [1] appears, read: input ligand: theophylline 20 uM.
[2] abbreviates: input ligand: theophylline 2 mM.
The mark [3] stands for this setting: input ligand: tryptophan 2.4 mM.

For “UGUCAGCGAAAGUUGACAUGUUGAACCGGUCGAGGACCGGUACGGCCGCCACUCGAUCUCUCGUACAUGAGGAUCACCCAUGUCG [SS Tryp A #18]”, the “apparent KD of MS2 coat protein” value stood at 0.0119 µM (input ligand: arginine 13.2 mM), 0.014 µM under setting [1] and 0.0117 µM under setting [2].

For the sequence “UGUCAUGGAAACAUGACUGGUUCUACCGGUCGAGGACCGGUACGGCCGCCACUCGAUUGGUGGCACAUGAGGAUCACCCAUGUUA [SS Tryp A #14]”, the “apparent KD of MS2 coat protein” value runs as follows: (input ligand: arginine 13.2 mM) 0.0262 µM; under setting [1], 0.0519 µM; under setting [2], 0.0339 µM.

“UGUCCUCAUGCGGCCGCCACUGUCGGCCGCCACUAAACAUGAGGAUCACCCAUGUAGGACCGGGACAGGACCGGGCAUGGGUGCU [TryBS - #DoubleAptamer]”: the “apparent KD of MS2 coat protein” value (input ligand: arginine 13.2 mM) stood at 0.132 µM; the “apparent KD of MS2 coat protein” value (input ligand: none) is 0.102 µM; the “apparent KD of MS2 coat protein” value under setting [1] came to 0.232 µM; the “apparent KD of MS2 coat protein” value under setting [2] worked out at 0.244 µM; the “apparent KD of MS2 coat protein” value under setting [3] turned out to be 0.319 µM.

Regarding “UGUGCAGGAUGCGUAAAGGGUCUUGGGCAUCGAGGACCGGUACGGCCGCCACUCGGCUGUACAUGAGGAUCACCCAUGUCAGGGU [#1 Same State - Tryptophan A Attempt #20 (HarryS)]”, the “apparent KD of MS2 coat protein” value (input ligand: arginine 13.2 mM) was found to be 0.0908 µM; the “apparent KD of MS2 coat protein” value (input ligand: none) amounted to 0.226 µM; the “apparent KD of MS2 coat protein” value under setting [1] came out at 1.06 µM; the “apparent KD of MS2 coat protein” value under setting [2] worked out at 0.393 µM; the “apparent KD of MS2 coat protein” value under setting [3] turned out to be 0.271 µM.

“UUAAUCGUGCAUGAUACCAGUAUCCGUAGAUACAUGAGGAUCACCCAUGUCUGGUUGGAAUACCCUUGGCAGCAUGGGUUGAGGA [theeternabot_sameState_MS2_Theo_B_20]”: the “apparent KD of MS2 coat protein” value reads like this: (input ligand: arginine 13.2 mM) 0.0371 µM; under setting [1], 0.224 µM; under setting [3], 0.238 µM.

Consider “UUACACAUCUCGGCCGCCACUGGCUUCAAAAUAAUGUGUACAUGAGGAUCACCCAUGUCCGAGCUCAGGACCGGGAGCAAAGAAG [SS Tryp B #14]”, for which the “apparent KD of MS2 coat protein” value (input ligand: arginine 13.2 mM) is 0.0211 µM, the “apparent KD of MS2 coat protein” value under setting [1] was determined as 0.0292 µM and the “apparent KD of MS2 coat protein” value under setting [2] is 0.0284 µM.

With “UUACAUGAGGAUCACCCAUGUCAUACAGAAGGAGCGUCACAUAAGACAGGUAGGUCGCUGUUAUUUCAUACUGUUAUAUCCUCUA [JR_Nu_ExcArginiA_Sub029]”, the “apparent KD of MS2 coat protein” value is, setting by setting: (input ligand: arginine 13.2 mM) 0.0301 µM; (input ligand: none) 0.0403 µM; under setting [1], 0.0562 µM; under setting [2], 0.0471 µM; under setting [3], 0.04 µM.

For the sequence “UUAGAUAUGACAGAUACCAGCGUGUUGUAGAACAUGAGGAUCACCCAUGUAGUGAUCGUGCGCCCUUGGCAGCUGGUAUGUUUGG [7.W]”, the “apparent KD of MS2 coat protein” value is, setting by setting: (input ligand: arginine 13.2 mM) 0.148 µM; under setting [1], 0.341 µM; under setting [3], 0.788 µM.

As for “UUAUAUUCUCAAUCGCCAUGUGCUUUAGAUACCAGUCUGAUAAAUGACCCUUGGCAGCUAGAGACAUGAGGAUCACCCAUGUCUU [theeternabot_exclusion_MS2_Theo_A_8]”, the “apparent KD of MS2 coat protein” value by setting is: (input ligand: arginine 13.2 mM) 0.0113 µM; under setting [1], 0.0139 µM; under setting [3], 0.0112 µM.

On to “UUAUGCAGGUCGGCCGCCACUACACACAUGAGGAUCACCCAUGUAGUUACUGGGUGAAGUGGCAGUAGGACCGGGACCUGCAUAC [Brourdmod06]”, for which the “apparent KD of MS2 coat protein” value worked out at 0.0554 µM (input ligand: arginine 13.2 mM), 0.396 µM under setting [1] and 0.877 µM under setting [2].

For the sequence “UUCUACAUGAGGAUCACCCAUGUGGGUGAUACCAGCACUUUUUGGUGCCCUUGGCAGCACAUGAGAAUACCGUACGAUCGGUGAU [Isbiti]”, the “apparent KD of MS2 coat protein” value by setting is: (input ligand: arginine 13.2 mM) 0.103 µM; under setting [1], 0.559 µM; under setting [3], 0.508 µM.

For the sequence “UUGACAUGAGGAUCACCCAUGUCAAAGGCACGAGGACCGGUACGGCCGCCACUCGUGGUCUAUGGCUGGUGGACUCGUGUCUCGG [Soisusdira]”, the “apparent KD of MS2 coat protein” value by setting is: (input ligand: arginine 13.2 mM) 0.0122 µM; (input ligand: none) 0.012 µM; under setting [1], 0.016 µM; under setting [2], 0.0168 µM; under setting [3], 0.0108 µM.

For “UUGCUCUCUUCGGCCGCCACUACACGCGAGUUGACGACUGGCGGACAUGAGGAUCACCCAUGUCAUAGGACCGGGAAUCACGCUG [theeternabot_sameState_MS2_Trp_B_11]”, the “apparent KD of MS2 coat protein” value (input ligand: arginine 13.2 mM) amounted to 0.0115 µM, the “apparent KD of MS2 coat protein” value under setting [1] came to 0.0159 µM and the “apparent KD of MS2 coat protein” value under setting [2] was 0.0152 µM.

Regarding “UUGUACGAAACUGAUACCAGCCAGCAAUGCCACCAAGAGCACAUGAGGAUCACCCAUGUUGGCCCUUGGCAGCAGGACAAUAAGC [theeternabot_exclusion_MS2_Theo_B_3]”, the “apparent KD of MS2 coat protein” value is 0.00744 µM (input ligand: arginine 13.2 mM), 0.0106 µM under setting [1] and 0.00891 µM under setting [3].
